Assay results as given in PMC5409451.

How the values were obtained:
[1] = molecular target: EV71 2C 116–329 E325A (enterovirus 71); assay: SEC
[2] = molecular target: EV71 2C 116–329 (enterovirus 71) (UniProt Q66478); assay: SEC

Substance | stoichiometry N [1] | stoichiometry N [2]
EV71 2C 116–329 E325A (domain or fragment) | 2 | –
EV71 2C 116–329 (from UniProt Q66478 117-330) (domain or fragment) | – | 4
